± gives the standard error. This sample holds only a part of the variants without activity.
B1: glmS ribozyme (parent)
chain: AUAAAAGCGCCAGAACUACAGAAAUGUAGUUGACGAGGAGGAGGUUUAUCGAAUUUUCGGCGGAUGCCUCCAAA

Legend:
Conditions in all cases: with glucosamine-6-phosphate
glucosamine-6-phosphate [1] = variants of: B1; test: self-cleavage kobs at 40 uM GlcN6P; higher = faster cleavage; RNA array
Procedure, shortened: (§1)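 Tracking of barcoded ribozyme variants used a hybridised Cy3 probe at 37 °C, after in situ transcription by E. coli RNA polymerase on sequenced MiSeq chips. The flowed solution held 40 μM to 10 mM glucosamine-6-phosphate in HEPES/KCl/Mg(OAc)2 buffer, and imaging ran over ~14 h. kobs was taken from exponential decay fits of normalised per-tile medians, and kcat and KM from weighted Michaelis–Menten fits.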

glucosamine-6-phosphate [2] = variants of: B1; test: self-cleavage kobs at 160 uM GlcN6P; higher = faster cleavage; RNA array
Procedure, shortened: as §1

glucosamine-6-phosphate [3] = variants of: B1; test: self-cleavage kobs at 640 uM GlcN6P; higher = faster cleavage; RNA array
Procedure, shortened: as §1

glucosamine-6-phosphate [4] = variants of: B1; test: self-cleavage kobs at 2500 uM GlcN6P; higher = faster cleavage; RNA array
Procedure, shortened: as §1

glucosamine-6-phosphate [5] = variants of: B1; test: self-cleavage kobs at 10000 uM GlcN6P; higher = faster cleavage; RNA array
Procedure, shortened: as §1

Row | Variant | self-cleavage kobs at 40 uM GlcN6P (glucosamine-6-phosphate [1]) [s⁻¹] | self-cleavage kobs at 160 uM GlcN6P (glucosamine-6-phosphate [2]) [s⁻¹] | self-cleavage kobs at 640 uM GlcN6P (glucosamine-6-phosphate [3]) [s⁻¹] | self-cleavage kobs at 2500 uM GlcN6P (glucosamine-6-phosphate [4]) [s⁻¹] | self-cleavage kobs at 10000 uM GlcN6P (glucosamine-6-phosphate [5]) [s⁻¹]
1 | G44A C71A | < 1e-05 | < 1e-05 | < 1e-05 | < 1e-05 | –
2 | G43C A53G | < 1e-05 | < 1e-05 | < 1e-05 | – | –
3 | G41U A48U C68A | < 1e-05 | – | – | < 1e-05 | –
4 | U46G C67G C68G | 2.82e-05 ± 1.4e-05 | – | – | 7.29e-05 ± 2.5e-05 | –
5 | A42U U54C U55C | < 1e-05 | – | – | 5.79e-05 ± 1.6e-05 | 8.78e-05 ± 1.3e-05
6 | G41A U49C U56A | < 1e-05 | – | – | – | –
7 | U46C G62U | < 1e-05 | < 1e-05 | – | – | < 1e-05
8 | A42G G60U C68G | < 1e-05 | – | < 1e-05 | – | –
9 | U46C G51U | < 1e-05 | < 1e-05 | < 1e-05 | < 1e-05 | –
10 | G44C U46A G51A | < 1e-05 | – | – | – | –
11 | G43C A52C U54G | < 1e-05 | – | < 1e-05 | – | < 1e-05
12 | G43C G59C | < 1e-05 | < 1e-05 | < 1e-05 | < 1e-05 | < 1e-05
13 | U46G A53U U69C | 7.38e-05 ± 2.7e-05 | – | – | – | 0.00109 ± 0.0003
14 | G41U A64U | < 1e-05 | – | < 1e-05 | – | –
15 | G44C C61U | < 1e-05 | < 1e-05 | < 1e-05 | < 1e-05 | < 1e-05
16 | A42G C61G | < 1e-05 | < 1e-05 | < 1e-05 | – | < 1e-05
17 | U46A U57G | < 1e-05 | < 1e-05 | – | – | –
18 | U46A U57C | < 1e-05 | – | – | – | –
19 | G44U C58G C68U | < 1e-05 | < 1e-05 | < 1e-05 | < 1e-05 | < 1e-05
20 | G44A C68G | < 1e-05 | < 1e-05 | < 1e-05 | < 1e-05 | < 1e-05
21 | G41U C50U G59U G66U | < 1e-05 | – | – | – | –
22 | G40U G59U U69C C71U | < 1e-05 | – | – | < 1e-05 | –

Row | Variant | self-cleavage kobs at 40 uM GlcN6P (glucosamine-6-phosphate [1]) [s⁻¹] | self-cleavage kobs at 160 uM GlcN6P (glucosamine-6-phosphate [2]) [s⁻¹] | self-cleavage kobs at 640 uM GlcN6P (glucosamine-6-phosphate [3]) [s⁻¹] | self-cleavage kobs at 2500 uM GlcN6P (glucosamine-6-phosphate [4]) [s⁻¹] | self-cleavage kobs at 10000 uM GlcN6P (glucosamine-6-phosphate [5]) [s⁻¹]
23 | U46A G51A | < 1e-05 | < 1e-05 | – | < 1e-05 | < 1e-05
24 | G41C U47C C68U | < 1e-05 | – | < 1e-05 | – | –
25 | A42G U45A U49C | < 1e-05 | – | – | – | –
26 | G41A U49A | < 1e-05 | < 1e-05 | – | – | < 1e-05
27 | G40U U56G G62C C67G | < 1e-05 | – | – | – | –
28 | G43C G63U | < 1e-05 | < 1e-05 | < 1e-05 | < 1e-05 | –
29 | G41A G51C | < 1e-05 | < 1e-05 | < 1e-05 | – | –
30 | G41C G44U G66U | < 1e-05 | – | – | < 1e-05 | < 1e-05
31 | A42G G43C | < 1e-05 | – | < 1e-05 | – | < 1e-05
32 | G44C U45C | < 1e-05 | < 1e-05 | – | – | –
33 | G44A A48G | < 1e-05 | < 1e-05 | < 1e-05 | < 1e-05 | < 1e-05
34 | G43C G44U C58U | < 1e-05 | – | – | < 1e-05 | –
35 | U45C U69G C71U | < 1e-05 | – | – | – | –
36 | A42U G51C | < 1e-05 | < 1e-05 | < 1e-05 | – | –
37 | U45A U55A A64G | 0.00112 ± 0.00022 | – | 0.00335 ± 0.0011 | 0.00972 ± 0.0028 | 0.0175 ± 0.0056
38 | G43U G63C | < 1e-05 | < 1e-05 | < 1e-05 | < 1e-05 | –
39 | G43U G63U | < 1e-05 | < 1e-05 | – | < 1e-05 | < 1e-05
40 | U46G C61G | < 1e-05 | < 1e-05 | < 1e-05 | – | < 1e-05
41 | G41A G60A G62U C70A | < 1e-05 | – | – | – | –
42 | U46G G51U | < 1e-05 | < 1e-05 | < 1e-05 | < 1e-05 | < 1e-05
43 | U46G U49C | < 1e-05 | < 1e-05 | < 1e-05 | < 1e-05 | < 1e-05
44 | U45G A48U C71G | < 1e-05 | – | – | – | –

Row | Variant | self-cleavage kobs at 40 uM GlcN6P (glucosamine-6-phosphate [1]) [s⁻¹] | self-cleavage kobs at 160 uM GlcN6P (glucosamine-6-phosphate [2]) [s⁻¹] | self-cleavage kobs at 640 uM GlcN6P (glucosamine-6-phosphate [3]) [s⁻¹] | self-cleavage kobs at 2500 uM GlcN6P (glucosamine-6-phosphate [4]) [s⁻¹] | self-cleavage kobs at 10000 uM GlcN6P (glucosamine-6-phosphate [5]) [s⁻¹]
45 | G41C U65G | < 1e-05 | < 1e-05 | < 1e-05 | – | –
46 | U46C G59C C68U | < 1e-05 | – | – | – | –
47 | A42U G60A | < 1e-05 | < 1e-05 | – | – | < 1e-05
48 | U45G G63U | < 1e-05 | < 1e-05 | < 1e-05 | < 1e-05 | < 1e-05
49 | G41A A52G G59A | < 1e-05 | < 1e-05 | < 1e-05 | – | –
50 | G43U U47A | < 1e-05 | – | – | – | –
51 | G43C A48U C50U C58A C67U | < 1e-05 | – | < 1e-05 | – | –
52 | G44C A52U | < 1e-05 | – | – | – | –
53 | G44C G51A | < 1e-05 | < 1e-05 | < 1e-05 | < 1e-05 | < 1e-05
54 | A42U G60C C67A | < 1e-05 | – | – | – | < 1e-05
55 | G41U G63C C70A | < 1e-05 | – | – | – | –
56 | G41U G60U U69C | < 1e-05 | – | – | – | < 1e-05
57 | A42C G44A | < 1e-05 | < 1e-05 | < 1e-05 | – | < 1e-05
58 | A42C U45A C67A | < 1e-05 | – | – | – | –
59 | A42U U65A | < 1e-05 | < 1e-05 | – | – | 4.89e-05 ± 1.2e-05
60 | A42U U65C | < 1e-05 | < 1e-05 | < 1e-05 | < 1e-05 | < 1e-05
61 | G43C | < 1e-05 | < 1e-05 | < 1e-05 | < 1e-05 | –
62 | G44C C71G | < 1e-05 | < 1e-05 | < 1e-05 | < 1e-05 | < 1e-05
63 | G44C C71A | < 1e-05 | < 1e-05 | < 1e-05 | – | –
64 | A42C U65C | < 1e-05 | < 1e-05 | < 1e-05 | < 1e-05 | < 1e-05
65 | G44A G63C | < 1e-05 | – | < 1e-05 | < 1e-05 | < 1e-05
66 | G44A G63U | < 1e-05 | < 1e-05 | < 1e-05 | < 1e-05 | < 1e-05

Row | Variant | self-cleavage kobs at 40 uM GlcN6P (glucosamine-6-phosphate [1]) [s⁻¹] | self-cleavage kobs at 160 uM GlcN6P (glucosamine-6-phosphate [2]) [s⁻¹] | self-cleavage kobs at 640 uM GlcN6P (glucosamine-6-phosphate [3]) [s⁻¹] | self-cleavage kobs at 2500 uM GlcN6P (glucosamine-6-phosphate [4]) [s⁻¹] | self-cleavage kobs at 10000 uM GlcN6P (glucosamine-6-phosphate [5]) [s⁻¹]
67 | A42C U49A G63C | < 1e-05 | – | – | – | –
68 | U46G C70U | 0.000256 ± 2.3e-05 | 0.000556 ± 8.8e-05 | 0.00125 ± 0.0002 | 0.00235 ± 0.00055 | 0.00705 ± 0.00083
69 | G41C G43C | < 1e-05 | < 1e-05 | < 1e-05 | – | < 1e-05
70 | U45C G60C | < 1e-05 | < 1e-05 | < 1e-05 | < 1e-05 | < 1e-05
71 | G43U A64U | < 1e-05 | – | < 1e-05 | < 1e-05 | < 1e-05
72 | G43A A64G | < 1e-05 | < 1e-05 | – | – | 4.35e-05 ± 1.7e-05
73 | U45G C58U | < 1e-05 | < 1e-05 | – | – | –
74 | U46A C50G A53U C70G | 0.000147 ± 6.3e-05 | – | – | – | 0.000126 ± 3.8e-05
75 | G44U G51C | < 1e-05 | < 1e-05 | < 1e-05 | < 1e-05 | < 1e-05
76 | U46G A52G C61A | < 1e-05 | – | – | – | –
77 | G43U C58U | < 1e-05 | < 1e-05 | < 1e-05 | – | < 1e-05
78 | G43U C58G | < 1e-05 | < 1e-05 | < 1e-05 | < 1e-05 | < 1e-05
79 | G41U G60U A64U | < 1e-05 | < 1e-05 | – | – | < 1e-05
80 | U46G G66C | 0.000227 ± 3.8e-05 | 0.000418 ± 0.00013 | 0.00135 ± 0.00038 | 0.00594 ± 0.0017 | –
81 | G41U G43A | < 1e-05 | – | < 1e-05 | < 1e-05 | < 1e-05
82 | G43A G59C | < 1e-05 | < 1e-05 | < 1e-05 | – | < 1e-05
83 | G44U A52U G62C | < 1e-05 | < 1e-05 | – | < 1e-05 | –
84 | G43U U46A U47G C70G | < 1e-05 | – | < 1e-05 | < 1e-05 | < 1e-05
85 | G43U C70G | < 1e-05 | < 1e-05 | < 1e-05 | < 1e-05 | < 1e-05
86 | A42C G60U | < 1e-05 | – | – | < 1e-05 | < 1e-05
87 | G43U G44U | < 1e-05 | < 1e-05 | < 1e-05 | < 1e-05 | < 1e-05

From the supplement of paper PMC7125110
